Test results taken from patent US20240117030A1 (Pfizer, published 2024).

T1: human IL-4 (human, UniProt P05112 25-153)
T1 sequence (looked up): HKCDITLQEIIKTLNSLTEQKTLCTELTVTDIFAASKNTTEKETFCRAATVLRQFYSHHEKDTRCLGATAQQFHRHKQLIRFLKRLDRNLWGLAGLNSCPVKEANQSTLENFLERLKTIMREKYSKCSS

T2: human IL-4 (human, UniProt P05112 25-153)
T2 sequence (looked up): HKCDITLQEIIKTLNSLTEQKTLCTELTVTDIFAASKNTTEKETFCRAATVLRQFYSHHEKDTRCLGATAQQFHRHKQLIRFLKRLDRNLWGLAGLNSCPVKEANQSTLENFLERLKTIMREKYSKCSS

T3: recombinant human IL-33 (R&D Systems 3625-IL), reduced with DTT (human, UniProt O95760 112-270, limits assumed)
T3 sequence (looked up): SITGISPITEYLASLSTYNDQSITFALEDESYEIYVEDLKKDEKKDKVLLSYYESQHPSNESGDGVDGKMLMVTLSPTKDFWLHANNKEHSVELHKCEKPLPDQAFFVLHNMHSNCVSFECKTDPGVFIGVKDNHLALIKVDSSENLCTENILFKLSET


What was measured:
Assay in all cases: cell-based or functional assay
human IL-4 [1] = molecular target: T1, human IL-4
human IL-4 [2] = molecular target: T2, human IL-4; remark: listed apart in the source
human IL-13 = human IL-13 (human, UniProt P35225 35-146)
Chain of human IL-13 (P35225 35-146 limits assumed): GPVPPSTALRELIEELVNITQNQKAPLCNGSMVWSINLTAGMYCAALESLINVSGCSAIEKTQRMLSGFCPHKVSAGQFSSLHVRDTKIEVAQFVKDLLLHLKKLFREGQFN

[3] = molecular target: T3, recombinant human IL-33 (R&D Systems …)

| Binder | IC50 [nM] versus reduced human IL-33 (R&D), IC50 (AVE) [3] | also measured |
| --- | --- | --- |
| IL13433-0607 (trispecific antibody, human IgG1, kappa) heavy: EVQLVESGGGLVQPGGSLRLSCAASGFTFSSYAMSWVRQAPGKGLEWVASISTGDTTYYPDSVKGRFTISRDNAKNSLYLQMNSLRAEDTAVYYCARNEGYYFGLTQWGRGTLVTVSSASTKGPSVFPKAPSSKSTSGGTAALGCLVKDYFPEPVTVSWNSGALTSGVHTFPAVLQSSGLYSLSSSVTVPSSSLGTQTYICNVNHKPSNTKVDKKVEPKSCDKTHTCPPCPAPEAAGAPSVFLFPPKPKDTLMISRTPEVTCVVVDVSHEDPEVKFNWYVDGVEVHNAKTKPREEQYNSTYRVVSVLTVLHQDWLNGKEYKCKVSNKALPAPIEKTISKAKGQPREPQVCTLPPSREEMTKNQVSLWCLVKGFYPSDIAVEWESNGQPENNYKTTPPVLDSDGSFFLYSKLTVDKSRWQQGNVFSCSVLHEALHSHYTQKSLSLSPGK chain 1: DIQMTQSPSSLSASVGDRVTITCRASQPISKHLDWYQQKPGKAPKLLIYFTNNLQTGVPSRFSGSGSGTDFTLTISSLQPEDFATYYCFQYNQGWTFGGGTKVEIKRTVAAPSVFIFPPSDEQLKSGTASVVCLLNNFYPREAKVQWKVDNALQSGNSQESVTEQDSKDSTYSLSSTLTLSKADYEKHKVYACEVTHQGLSSPVTKSFNRGECGGGGSEVTLRESGPALVKPTQTLTLTCTFSGFSLSNFGEGLSWIRQPPGKGLEWLAHIYWDDDKRYSTSLKTRLTISKDTSRNQVVLTMTNMDPVDTATYYCARRETVFYWYFDVWGQGTTVTVSSASTKGPSVFPEAPSSKSTSGGTAALGCLVKDYFPEPVTVSWNSGALTSGVHTFPAVLQSSGLYSLGSVVTVPSSSLGTQTYICNVNHKPSNTKVDKKVEPKSCDKTHTCPPCPAPEAAGAPSVFLFPPKPKDTLMISRTPEVTCVVVDVSHEDPEVKFNWYVDGVEVHNAKTKPREEQYNSTYRVVSVLTVLHQDWLNGKEYKCKVSNKALPAPIEKTISKAKGQPREPQVYTLPPCREEMTKNQVSLSCAVKGFYPSDIAVEWESNGQPENNYKTTPPVLDSDGSFFLVSKLTVDKSRWQQGNVFSCSVLHEALHSHYTQKSLSLSPGK light 1: DIQMTQSPSSLSASVGDRVTITCRASESVDHFGWSLVHWYQQKPGKAPKLLIYRADSLETGVPSRFSGSGSGTDFTLTISSLQPEDFATYYCQQSNEDPWTFGGGTKVEIKRTVAAPSVFIFPPSDEQLKSGTASVSCLLNNFYPREAKVQWKVDNALQSGNSQESVTEQDSKDSTYSLDSTLTLSKADYEKHKVYACEVTHQGLSSPVTKSFNRGEC light 2: DIQMTQSPSSLSASVGDRVTITCRASQSVDEEGDSYMNWYQQKPGKAPKLLIYAASNLESGVPSRFSGSGSGTDFTLTISSLQPEDFATYYCQQSHKDPPTFGGGTKVEIKRTVAAPSVFIFPPSDEQLKSGTASVSCLLNNFYPREAKVQWKVDNALQSGNSQESVTEQDSKDSTYSLKSTLTLSKADYEKHKVYACEVTHQGLSSPVTKSFNRGEC chain 2: EVQLVESGGGLVQPGGSLRLSCAASGFTFSSYWMYWVRQAPGKGLEWVAAITPNAGEDYYPESVKGRFTISRDNAKNSLYLQMNSLRAEDTAVYYCARGHYYYTSYSLGYWGQGTLVTVSSASTKGPSVFPLAPSSKSTSGGTAALGCLVKDYFPEPVTVSWNSGALTSGVHTFPAVLQSSGLYSLSSVVTVPSSSLGTQTYICNVNHKPSNTKVDKKVEPKSC |  | fold loss in IL-4 neutralization (CD23 bioassay) relative to IL13433-0006 (human IL-4 [1]): ~6.5 fold |
| IL4-0002 (antibody, human IgG1, kappa) heavy: EVTLRESGPALVKPTQTLTLTCTFSGFSLSNFGEGLSWIRQPPGKGLEWLAHIYWDDDKRYNPSLKSRLTISKDTSRNQVVLTMTNMDPVDTATYYCARRETVFYWYFDVWGQGTTVTVSSASTKGPSVFPLAPSSKSTSGGTAALGCLVKDYFPEPVTVSWNSGALTSGVHTFPAVLQSSGLYSLSSVVTVPSSSLGTQTYICNVNHKPSNTKVDKKVEPKSCDKTHTCPPCPAPEAAGAPSVFLFPPKPKDTLMISRTPEVTCVVVDVSHEDPEVKFNWYVDGVEVHNAKTKPREEQYNSTYRVVSVLTVLHQDWLNGKEYKCKVSNKALPAPIEKTISKAKGQPREPQVYTLPPSREEMTKNQVSLTCLVKGFYPSDIAVEWESNGQPENNYKTTPPVLDSDGSFFLYSKLTVDKSRWQQGNVFSCSVMHEALHNHYTQKSLSLSPGK light: DIQMTQSPSSLSASVGDRVTITCKASQSVDEDGDSYMNWYQQKPGKAPKLLIYAASNLESGVPSRFSGSGSGTDFTLTISSLQPEDFATYYCQQSNEDPPTFGGGTKVEIKRTVAAPSVFIFPPSDEQLKSGTASVVCLLNNFYPREAKVQWKVDNALQSGNSQESVTEQDSKDSTYSLSSTLTLSKADYEKHKVYACEVTHQGLSSPVTKSFNRGEC |  | a-hIL-4 bioassay IC50, pM) (human IL-4 [2]): 2.39 pM |
| IL13-0001 (antibody, human IgG1, kappa, V domains shown) VH: EVQLVESGGGLVQPGGSLRLSCAASGFTFSSYAMSWVRQAPGKGLEWVASISSGDTTYYPDSVKGRFTISRDNAKNSLYLQMNSLRAEDTAVYYCARNEGYYFGLTLWGQGTLVTVSS VL: DIQMTQSPSSLSASVGDRVTITCKASESVDHFGWSLVHWYQQKPGKAPKLLIYRASNLESGVPSRFSGSGSGTDFTLTISSLQPEDFATYYCQQSNEDPWTFGGGTKVEIKR |  | a-hIL-13 bioassay (IC50, pM) (human IL-13): 5.79 pM |
| IL33-0714 (antibody, IgG1, V domains shown) VH: EVQLVESGGGLVQPGGSLRLSCAASGFTFSSYWMYWVRQAPGKGLEWVAAITPNKGVDYYPESVKGRFTISRDNAKNSLYLQMNSLRAEDTAVYYCARGHYYYTSYSLGYWGQGTLVTVSS VL: DIQMTQSPSSLSASVGDRVTITCRASQPISKHLDWYQQKPGKAPKLLIYFTKNLKTGVPSRFSGSGSGTDFTLTISSLQPEDFATYYCFQYNQGWTFGGGTKVEIK | 0.009 nM |  |
| IL33-0710 (antibody, IgG1, V domains shown) VH: EVQLVESGGGLVQPGGSLRLSCAASGFTFSSYWMYWVRQAPGKGLEWVAAITPNAHAGYYPESVKGRFTISRDNAKNSLYLQMNSLRAEDTAVYYCARGHYYYTSYSLGYWGQGTLVTVSS VL: DIQMTQSPSSLSASVGDRVTITCRASQPISKHLDWYQQKPGKAPKLLIYFTKNLVTGVPSRFSGSGSGTDFTLTISSLQPEDFATYYCFQYNQGWTFGGGTKVEIK | 0.013 nM |  |
| IL33-0701 (antibody, IgG1, V domains shown) VH: EVQLVESGGGLVQPGGSLRLSCAASGFTFSSYWMYWVRQAPGKGLEWVAAITPNKGVDYYPESVKGRFTISRDNAKNSLYLQMNSLRAEDTAVYYCARGHYYYTSYSLGYWGQGTLVTVSS VL: DIQMTQSPSSLSASVGDRVTITCRASQPISKHLDWYQQKPGKAPKLLIYFTNNLQTGVPSRFSGSGSGTDFTLTISSLQPEDFATYYCFQYKQGWTFGGGTKVEIK | 0.013 nM |  |
| IL33-0713 (antibody, IgG1, V domains shown) VH: EVQLVESGGGLVQPGGSLRLSCAASGFTFSSYWMYWVRQAPGKGLEWVAAITPNKGVDYYPESVKGRFTISRDNAKNSLYLQMNSLRAEDTAVYYCARGHYYYTSYSLGYWGQGTLVTVSS VL: DIQMTQSPSSLSASVGDRVTITCRASQPISKHLDWYQQKPGKAPKLLIYFTKNLVTGVPSRFSGSGSGTDFTLTISSLQPEDFATYYCFQYNQGWTFGGGTKVEIK | 0.012 nM |  |
| IL33-0715 (antibody, IgG1, V domains shown) VH: EVQLVESGGGLVQPGGSLRLSCAASGFTFSSYWMYWVRQAPGKGLEWVAAITPNKGVDYYPESVKGRFTISRDNAKNSLYLQMNSLRAEDTAVYYCARGHYYYTSYSLGYWGQGTLVTVSS VL: DIQMTQSPSSLSASVGDRVTITCRASQPISKHLDWYQQKPGKAPKLLIYFTKNLQSGVPSRFSGSGSGTDFTLTISSLQPEDFATYYCFQYNQGWTFGGGTKVEIK | 0.012 nM |  |
| IL33-0711 (antibody, IgG1, V domains shown) VH: EVQLVESGGGLVQPGGSLRLSCAASGFTFSSYWMYWVRQAPGKGLEWVAAITPNAHAGYYPESVKGRFTISRDNAKNSLYLQMNSLRAEDTAVYYCARGHYYYTSYSLGYWGQGTLVTVSS VL: DIQMTQSPSSLSASVGDRVTITCRASQPISKHLDWYQQKPGKAPKLLIYFTKNLKTGVPSRFSGSGSGTDFTLTISSLQPEDFATYYCFQYNQGWTFGGGTKVEIK | 0.007 nM |  |

More lines, main results first:

| IC50 [nM] versus reduced human IL-33 (R&D), IC50 (AVE) [3] | Binder | also measured |
| --- | --- | --- |
| 0.014 nM | IL33-0698 (antibody, IgG1, V domains shown) VH: EVQLVESGGGLVQPGGSLRLSCAASGFTFSSYWMYWVRQAPGKGLEWVAAITPNAHAGYYPESVKGRFTISRDNAKNSLYLQMNSLRAEDTAVYYCARGHYYYTSYSLGYWGQGTLVTVSS VL: DIQMTQSPSSLSASVGDRVTITCRASQPISKHLDWYQQKPGKAPKLLIYFTNNLQTGVPSRFSGSGSGTDFTLTISSLQPEDFATYYCFQYKQGWTFGGGTKVEIK |  |
| 0.01 nM | IL33-0712 (antibody, IgG1, V domains shown) VH: EVQLVESGGGLVQPGGSLRLSCAASGFTFSSYWMYWVRQAPGKGLEWVAAITPNAHAGYYPESVKGRFTISRDNAKNSLYLQMNSLRAEDTAVYYCARGHYYYTSYSLGYWGQGTLVTVSS VL: DIQMTQSPSSLSASVGDRVTITCRASQPISKHLDWYQQKPGKAPKLLIYFTKNLQSGVPSRFSGSGSGTDFTLTISSLQPEDFATYYCFQYNQGWTFGGGTKVEIK |  |
